Holding throughout (format): in vivo
The subject of one experiment is experimental rat wounds. The experiment in a line: Rat model of scar formation, dose response, two equal doses separated by 24 hours. Particulars: repeated treatment with low doses or with high doses (range 5-500 ng/cm), 24 hours apart. The method, then: FIG. 10 illustrates a “bell-shaped” dose response curve in a rat model of scar formation in response to different doses of TGF-β3. TGF-β3 was provided to wounds via two injections of TGF-β3 separated by approximately 24 hours. The amount of TGF-β3 provided in each injection was the same in each incidence of treatment.
FIG. 10 illustrates that the TGF-β3 “bell-shaped” dose response curve observed in human subjects is also found in experimental animals. Here, TGF-β3 was provided to experimental rat wounds, in two incidences of treatment separated by 24 hours (the first incidence of treatment occurring at, or around, the time of wounding). The amount of TGF-β3 administered per centimetre of wound in each incidence of treatment is shown on the X-axis (5 ng/cm, 50 ng/cm, 200 ng/cm or 500 ng/cm).

Experiment [1] concerns 1 cm incisional rat wounds. As to the kind of experiment: Rat model of wound healing and scarring, escalating versus constant doses, macroscopic VAS. The procedure:
FIG. 11 is a graph comparing the mean differences between macroscopic VAS scores of scars formed on healing of 1 cm incisional rat wounds treated with a diluent control (“placebo treated wounds”), and scars formed on healing of wounds provided with one of the following regimes: • i) TGF-β3 control treatment using 20 ng TGF-β3 per centimetre; • ii) TGF-β3 control treatment using 100 ng TGF-β3 per centimetre; or • iii) TGFβ3 treatment using escalating doses of TGF-β3 administered in sequential incidences of treatment.
In each case the wounds were subject to two incidences of treatment, the first prior to wounding and the second approximately 24 hours later.
Placebo treated control wounds were provided with two incidences of treatment, each of which consisted of administration of a diluent. These placebo treated wounds provide a baseline value for scarring, with reference to which scar inhibition produced by TGF-β3 treatments may be determined. “Control treated wounds” were provided with two incidences of treatment, each comprising injections of TGF-β3 at either 20 ng/100 μl or 100 ng/100 μl (the same concentration of TGF-β3 being injected in each incidence of treatment). The “treated wounds” were provided with an escalating dose regimen in which the first incidence of treatment comprised an injection of 20 ng/100 μl TGFβ3, while the second incidence of treatment comprised an injection of 100 ng/100 μl TGFβ3.
Each animal received two wounds, and these were arranged so that the wounds of each animal included placebo treated wounds, as well as either treated wounds (examples treated using escalating doses of TGF-β3 administered in sequential incidences of treatment), or control treated wounds (receiving control treatment with TGF-β3 at the same dose in each incidence of treatment). This permits comparison between scars formed on healing of placebo treated wounds and treated or control treated wounds within the same subject. […]
Scars were assessed, and VAS scores produced, 70 days after wounding. […]

Another experiment concerns human wounds. As to the kind of experiment: Clinical trial, two incidences of treatment within approximately 1 hour, lay panel VAS scar scoring. The procedure: FIG. 2 illustrates data from a clinical trial conducted by the inventors. In this study TGFβ3 and Placebo were each administered in two separate incidences of treatment (by means of two intradermal injections). However, unlike the methods of the present invention, the first incidence of treatment took place immediately prior to wounding but the second incidence of treatment occurred immediately after wound closure, i.e., both doses being administered within approximately 1 hour of one another (the first ten to thirty minutes prior to wounding, and the second ten to thirty minutes post-wounding). […] To test the treatment effect, ToScar of the TGFβ3 scar was subtracted from the anatomically matched Placebo ToScar on the other arm on each subject. ToScar was calculated as the sum of VAS scores (mm) from week 6 and months 3, 4, 5, 6 and 7. The scars were scored by an independent lay panel at 6 time points after dosing (week 6, months 3-7) using a 100 mm VAS line.
FIG. 8 illustrates data from a clinical trial conducted by the inventors in which either TGF-β3 or placebo were administered in two incidents of treatment (each comprising administration of the test substance by intradermal injection), the first incidence occurring prior to wounding and the second immediately after wound closure, i.e., both doses of TGF-β3 being the same as one another, and administered within approximately 1 hour (10-30 mins prior to wounding and 10-30 mins post wounding).

B1: TGF-β3: well-known anti-scarring growth factor, Sequence ID No. 1; labelled "Juvista" in FIGS. 8 and 9 (protein, listed as Homo sapiens)
chain: ALDTNYCFRNLEENCCVRPLYIDFRQDLGWKWVHEPKGYYANFCSGPCPYLRSADTTHSTVLGLYNTLNPEASASPCCVPQDLEPLTILYYVGRTPKVEQLSNMVVKSCKCS
With B1, the inhibition of scarring result is given as “little inhibition of scarring” in the experiment on experimental rat wounds; “effectively inhibited” in the experiment with human wounds (two applications of 5, 50, 200 and 500 ng/100 μl per cm, both within approximately 1 hour). For the same molecule, the “scarring compared to placebo (macroscopic VAS)” value in experiment [1] (dosed twice with either 20 ng/100 μl or 100 ng/100 μl, 24 hours apart, 70 days after wounding) is given as “displayed a reduction in scarring”. Moreover, the “inhibition of scarring (macroscopic VAS) versus constant doses” value in experiment [1] (escalating: 20 ng/100 μl then 100 ng/100 μl approximately 24 hours later, 70 days after wounding) is “much larger magnitude of effect”. Moreover, in experiment [1] (escalating: 20 ng/100 μl then 100 ng/100 μl approximately 24 hours later, 70 days post wounding), the “inhibition of scarring, macroscopic images” value was “greatest inhibition in scarring”. Further, the “inhibition of scarring (mean VAS scores over time)” value in the experiment with human wounds (two applications of 5, 50, 200 and 500 ng/100 μl per cm within approximately 1 hour, week 6 to month 7) is “scarring is inhibited”. The “scar improvement (placebo ToScar minus TGFβ3 ToScar, sum of VAS scores), average” value in the experiment with human wounds (two applications within approximately 1 hour, 200 ng/100 μl per cm, maximum improvement) is above 40 mm. Besides, the “drug efficacy at top of dose range” value in the experiment on human wounds (two applications within approximately 1 hour, 500 ng/100 μl per cm, versus 200 ng) is on record as “reduction in drug efficacy”.

For the origin of these results see patent US20100266532A1, “METHODS FOR INHIBITING SCARRING” (Renovo Limited, priority 2007, published 2010).
